Key:
HeLa cells = assay: BrdU incorporation in transiently transfected HeLa cells; assay type: cell-based, human; conditions: summary of Table 1
Procedure: Bromodeoxyuridine (BrdU) incorporation. The effect of FIN13 expression on BrdU incorporation was determined in HeLa cells growing asynchronously in DMEM/10% calf serum. Cells were plated at 10000 cells/ml on coverslips and after 24 h were transfected with 10 μg of either pRKERK2-HA, CMVβ or pRKFIN13. Twenty four hours after transfection the medium was changed and the cells were incubated with BrdU labelling reagent (10 μl) for a further 12 h according to the suppliers instructions (Boehringer Mannheim). Following labelling, coverslips were rinsed in PBS and cells were fixed in 70% ethanol-50 mM glycine (pH 2.0) overnight at -20° C. Incorporated BrdU was detected with FITC-conjugated anti-BrdU (Boehringer Mannheim) by immunocytochemistry (see below).
Immunocytocliemistry. Fixed cells on coverslips were washed twice in PBS and twice in PBS/0.02% BSA followed by incubation with the primary antibody diluted in PBS/0.02% BSA for 1 hour at 37° C. (anti-FIN13 polyclonal serum at 1:200, anti-HA monoclonal antibody 12CA5 acities at 1:200 or anti-β-galactosidase GAL40 monoclonal antibody at 1:500). After washing, coverslips were incubated in secondary antibody as above (anti-rabbit Texas red at 1:200, anti-mouse Texas red at 1:200)(Molecular Probes). The coverslips were washed again and then incubated in […] (1:500) FITC-conjugated anti-BrdU (Boehringer Mannheim) as above. Where noted, cells were also stained with 1 μg/ml bis-benzimide (Hoechst #33342) in PBS. Coverslips were mounted and examined using a fluorescence microscope.
Cells Transiently Transfected with FIN13 are Blocked in the Cell Cycle. We have utilized a transient transfection approach to examine the effect of FIN13 expression on DNA synthesis and cell cycle progression. […] ERK2 is expressed as a nuclear protein in HeLa cells in the presence of 10% serum (Chen et al., Mol. Cell. Biol. 12:915-927 (1992)) while β-galactosidase is predominantly cytoplasmic. […] BrdU incorporation was detected using FITC-conjugated anti-BrdU antibodies.

his-FIN13 = target: T1, his-FIN13 (Mus musculus, UniProt Q61074); assay: Phosphatase assay of bacterially expressed his-FIN13 with 32P-labelled casein; assay type: biochemical; conditions: for effect on his-FIN13 phosphatase activity: 20 μg/ml, 20 mg/ml in FIG. 5 legend
T1 construct: Purified his-tagged full length FIN13 (his-FIN13); made in house; host or cells: E. coli BL21(DE3)
T1 sequence (Q61074 151-542 limits assumed): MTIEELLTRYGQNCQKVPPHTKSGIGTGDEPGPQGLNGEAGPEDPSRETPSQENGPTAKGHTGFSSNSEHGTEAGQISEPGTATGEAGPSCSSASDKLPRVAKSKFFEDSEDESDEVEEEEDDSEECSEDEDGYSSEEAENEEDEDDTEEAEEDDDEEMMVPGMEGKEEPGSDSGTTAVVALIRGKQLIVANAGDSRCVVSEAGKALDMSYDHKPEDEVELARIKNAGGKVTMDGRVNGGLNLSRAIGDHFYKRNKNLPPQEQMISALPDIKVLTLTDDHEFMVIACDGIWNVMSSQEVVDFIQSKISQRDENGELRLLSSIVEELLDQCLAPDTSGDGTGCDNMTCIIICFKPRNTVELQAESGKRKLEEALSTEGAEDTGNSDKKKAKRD
Procedure: FIG. 5. Phosphatase activity of bacterially expressed FIN13. Purified his-tagged full length FIN13 (his-FIN13) or his-tagged catalytic domain FIN13 (his-FIN13-cat) were examined for their ability to dephosphorylate ^32 P-labelled cascin in vitro as described in the Materials and Methods. Phosphatase assays were performed in the absence of his-FIN13 (No FIN13; open bar) or with his-FIN13 incubated in the presence of 10 mM of the indicated divalent cation (MgCl2, ZnCl2, CaCl2 or MnCl2)(solid bars) or in the presence of the indicated mM concentrations of MnCl2 (half-tone bars). +EDTA: indicates his-FIN13 incubated in the presence of 10 mM EDTA and 10 mM MnCl2. his-FIN13-cat was incubated in the presence of the indicated mM concentrations of MnCl2 (cross-hatched bars). his-FIN13 was also incubated in the presence of 1 μM okadaic acid (OA), 20 mg/ml poly L-lysine (PL-L), 20 mg/ml protamine sulfate (PS). All incubations were performed for 1 h at 30° C.
Preparation of ^32 P-labelled casein. Casein (10 mg)(Sigma) was labelled with ^32 P using 10U of the catalytic subunit of cAMP dependent protein kinase (Sigma) in 50 mM Tris-HCl pH 7.0, 0.1 mM EGTA, 10 mM Mg-acetate, 0.1% β-mercaptoethanol, and 0.5 mCi of ^32 PγATP for 12 h at 30° C. The reaction mixture was then precipitated at 4° C. in 20% TCA. Labelled casein was recovered by centrifugation, the pellet washed 5 times in 100% acetone and resuspended in 50 mM Tris-HCl, 0.1 mM EGTA.
Phosphatase assay. The phosphatase activity of purified FIN13 expressed in bacteria as a fusion protein with N- and C-terminal his-tags was assessed in vitro using ^32 P-labelled casein as a substrate. For preparation of his-FIN13 and his-FIN13-cat from bacteria, the BL21(DE3) strain transformed with pEThis-FIN13 or pEThis-FIN13-cat were induced with 0.2 mM IPTG for 2 h following which the cells were recovered by centrifugation, resuspended in column buffer (50 mM sodium phosphate, pH 8.0, 300 mM NaCl, 1 mM PMSF) and frozen overnight at -70° C. The bacteria were then lysed by sonication at 4° C. and the extract cleared by centrifugation. The supernatant was then adsorbed to Ni-NTA-agarose (Qiagen) at 4° C. for 1 h. The resin was then washed extensively in column buffer without PMSF and his-FIN13 or his-FIN13-cat were eluted using 25 mM Tris-HCl pH 7.2, 100 mM NaCl containing […] imidazole (Sigma). In addition, the phosphatase activity of FIN13 expressed in HeLa cells was also determined in an immune complex using ^32 P-labelled casein as a substrate. For preparation of immune complexes of myc-FIN13, HeLa cells were transfected with […] of pRKmyc-FIN13 or pRK5. Cells were lysed 24 h after transfection in lysis buffer (10 mM Na-phosphate pH 7.4, 100 mM NaCl, 1% TRITON X-100, 10 mM EDTA) also containing a protease/phosphatase inhibitor cocktail (1 mM PMSF, 1 μg/ml pepstatin, 1 μg/ml leupeptin, 1 μg/ml aprotinin, 10 mM Na-orthovanadate, 80 mM NaF, 80 mM β-glycerolphosphate, 10 μM okadaic acid). Cleared lysates (100 μg total protein) were immunoprecipitated with anti-myc monoclonal antibody (9E10) adsorbed to 30 μl protein G sepharose (Zymed) or anti-FIN13 antiserum adsorbed to 30 μl protein A sepharose (Zymed) for 1.5 h at 4° C. The anti-FIN13 polyclonal antiserum (630) was generated against the full length his-FIN13 expressed and purified from bacteria. The IPs were then washed 5 times with lysis buffer, once with 10 mM Tris-HCl pH 7.0, 100 mM NaCl and 5 mM MnCl2, and twice with phosphatase reaction buffer (10 mM Tris-HCl pH 7.0, 0.1 mM EGTA, 10 mM DTT and 10 mM MnCl2) containing 1 μM okadaic acid. Purified his-FIN13, his-FIN13-cat or myc-lPs were then examined for phosphatase activity by incubating the indicated FIN13 preparation in the presence of phosphatase reaction buffer containing ^32 P-labelled casein (1×10^5 cpm; approx. 1 μl) at 30° C. for up to 2 h.

## ERK2-HA: control nuclear protein ERK2 expressed in HeLa cells
HeLa cells
  cells expressing the protein observed to incorporate BrdU: greater than 70%

## poly L-lysine
his-FIN13
  effect on his-FIN13 phosphatase activity: Neither poly L-lysine nor protamine sulfate significantly altered

## protamine sulfate
his-FIN13
  effect on his-FIN13 phosphatase activity: Neither poly L-lysine nor protamine sulfate significantly altered

## β-galactosidase: control protein, predominantly cytoplasmic
HeLa cells
  cells expressing the protein observed to incorporate BrdU: greater than 70%

B1: his-FIN13: purified full length FIN13 expressed in bacteria as fusion protein with N- and C-terminal his-tags (protein)
chain: T1 sequence (Q61074 151-542 limits assumed)
his-FIN13; 32P-labelled casein substrate
  MnCl2 concentration giving maximal phosphatase activity: 10 mM
his-FIN13; in the presence of MgCl2, ZnCl2 or CaCl2 (10 mM)
  phosphatase activity with other divalent cations: No activity
his-FIN13; in the presence of Mn2+ ions, 30° C.
  dephosphorylation of 32P-labelled casein: able to dephosphorylate

B2: his-FIN13-cat: catalytic domain of FIN13 (amino acids 195 to 392) with N- and C-terminal poly(6)-histidine tags (protein)
chain: DSRCVVSEAGKALDMSYDHKPEDEVELARIKNAGGKVTMDGRVNGGLNLSRAIGDHFYKRNKNLPPQEQMISALPDIKVLTLTDDHEFMVIACDGIWNVMSSQEVVDFIQSKISQRDENGELRLLSSIVEELLDQCLAPDTSGDGTGCDNMTCIIICFKPRNTVELQAESGKRKLEEALSTEGAEDTGNSDKKKAKRD
his-FIN13; 10 mM MnCl2
  phosphatase activity of catalytic domain: poor phosphatase activity
his-FIN13; 400 mM MnCl2
  phosphatase activity of catalytic domain: detectable

B3: FIN13: novel FGF-inducible type 2C serine/threonine phosphatase (protein)
chain: T1 sequence (Q61074 151-542 limits assumed)
HeLa cells
  cells expressing the protein observed to incorporate BrdU: 10-17%

Reference: patent publication US6066485A, “Growth factor inducible serine/threonine phosphatase fin13” (New York University, priority 1997, dated 2000)
